B1: r11_951_TrROS_Hall (parent)
chain: KKKYVIKVYFEDTGKEVEIEAESKEEALEAAKRLAEELGLKIKKVEIYP

Variants of: B1
Test: folding stability dG (cDNA display proteolysis); higher = more stable
Conditions: PBS, room temperature

Variant	folding stability dG
E29H	4.51 kcal/mol
E29V	4.53 kcal/mol
E29T	4.71 kcal/mol
E29R	4.64 kcal/mol
E29Q	4.22 kcal/mol
E29P	3.83 kcal/mol
E29G	4.29 kcal/mol
E29M	4.77 kcal/mol
E29I	4.48 kcal/mol
E29L	4.94 kcal/mol
E29C	4.58 kcal/mol
E29A	4.75 kcal/mol
E29S	4.56 kcal/mol
E29D	4.44 kcal/mol
E29K	4.53 kcal/mol
E29N	4.53 kcal/mol
L34N	3.66 kcal/mol
L34T	4.25 kcal/mol
L34G	3.15 kcal/mol
L34D	2.95 kcal/mol
L34F	4.52 kcal/mol
L34Q	3.99 kcal/mol
L34C	3.85 kcal/mol
L34R	4.32 kcal/mol

Variant	folding stability dG
L34E	3.68 kcal/mol
L34S	4.01 kcal/mol
L34A	4.16 kcal/mol
L34I	4.27 kcal/mol
L34Y	4.45 kcal/mol
L34H	4.22 kcal/mol
L34W	4.57 kcal/mol
L34P	1.34 kcal/mol
L34V	4.51 kcal/mol
L34K	4.35 kcal/mol
L34M	4.55 kcal/mol
A30G	4.4 kcal/mol
A30E	4.31 kcal/mol
A30S	4.45 kcal/mol
A30N	4.41 kcal/mol
A30H	4.57 kcal/mol
A30P	2.07 kcal/mol
A30R	4.58 kcal/mol
A30D	4.16 kcal/mol
A30L	4.66 kcal/mol
A30Y	4.89 kcal/mol
A30K	4.33 kcal/mol
A30Q	4.44 kcal/mol
A30I	4.49 kcal/mol

Variant	folding stability dG
A30M	4.47 kcal/mol
A30F	4.66 kcal/mol
A30C	4.16 kcal/mol
A30T	4.38 kcal/mol
A30V	4.44 kcal/mol
R33Y	4.63 kcal/mol
R33P	2.02 kcal/mol
R33T	4.18 kcal/mol
R33G	4.21 kcal/mol
R33K	4.39 kcal/mol
R33N	4.22 kcal/mol
R33L	4.23 kcal/mol
R33E	4.03 kcal/mol
R33D	4.09 kcal/mol
R33I	4.28 kcal/mol
R33M	4.32 kcal/mol
R33V	4.22 kcal/mol
R33A	4.04 kcal/mol
R33F	4.38 kcal/mol
R33Q	4.02 kcal/mol
R33S	4.2 kcal/mol
R33C	4.17 kcal/mol
R33H	4.18 kcal/mol
R33W	4.65 kcal/mol

Variant	folding stability dG
K24W	4.51 kcal/mol
K24V	4.6 kcal/mol
K24R	4.3 kcal/mol
K24G	4.41 kcal/mol
K24I	4.52 kcal/mol
K24S	4.29 kcal/mol
K24C	4.53 kcal/mol
K24Q	4.38 kcal/mol
K24H	4.45 kcal/mol
K24L	4.48 kcal/mol
K24P	4.19 kcal/mol
K24T	4.57 kcal/mol
K24N	4.46 kcal/mol
K24M	4.46 kcal/mol
K24D	4.37 kcal/mol
K24Y	4.5 kcal/mol
K24F	4.32 kcal/mol
K24A	4.55 kcal/mol
K24E	4.54 kcal/mol
S23Y	3.98 kcal/mol
S23R	4 kcal/mol
S23K	3.92 kcal/mol
S23H	4.08 kcal/mol
S23A	4.08 kcal/mol

Variant	folding stability dG
S23N	4.38 kcal/mol
S23G	4.06 kcal/mol
S23D	4.31 kcal/mol
S23F	4.26 kcal/mol
S23E	4.22 kcal/mol
S23T	4.35 kcal/mol
S23V	3.91 kcal/mol
S23Q	3.89 kcal/mol
S23L	4.01 kcal/mol
S23C	4.05 kcal/mol
S23I	4 kcal/mol
S23W	4.13 kcal/mol
S23M	3.83 kcal/mol
S23P	2.12 kcal/mol
E25H	4.39 kcal/mol
E25A	4.4 kcal/mol
E25F	4.34 kcal/mol
E25N	4.16 kcal/mol
E25C	4.28 kcal/mol
E25R	4.22 kcal/mol
E25K	4.22 kcal/mol
E25S	4.12 kcal/mol
E25P	4.16 kcal/mol
E25V	4.36 kcal/mol

Variant	folding stability dG
E25I	4.27 kcal/mol
E25G	4.15 kcal/mol
E25T	4.28 kcal/mol
E25M	4.32 kcal/mol
E25D	4.58 kcal/mol
E25Y	4.33 kcal/mol
E25W	4.25 kcal/mol
E25L	4.18 kcal/mol
E25Q	4.18 kcal/mol
E22K	4.05 kcal/mol
E22S	4.25 kcal/mol
E22R	4.18 kcal/mol
E22T	4.23 kcal/mol
E22V	4.29 kcal/mol
E22F	4.46 kcal/mol
E22A	4.36 kcal/mol
E22P	4.4 kcal/mol
E22G	4.32 kcal/mol
E22W	4.64 kcal/mol
E22Q	4.11 kcal/mol
E22C	4.52 kcal/mol
E22D	4.26 kcal/mol
E22Y	4.52 kcal/mol
E22N	4.38 kcal/mol

Variant	folding stability dG
E22H	4.49 kcal/mol
E22L	4.26 kcal/mol
E22I	4.11 kcal/mol
E22M	4.07 kcal/mol
E18Q	4.5 kcal/mol
E18C	4.4 kcal/mol
E18R	4.19 kcal/mol
E18S	4.25 kcal/mol
E18Y	4.12 kcal/mol
E18W	4.3 kcal/mol
E18F	4.21 kcal/mol
E18G	4.06 kcal/mol
E18A	4.14 kcal/mol
E18P	3.84 kcal/mol
E18M	4.35 kcal/mol
E18N	4.16 kcal/mol
E18K	4.07 kcal/mol
E18D	4.45 kcal/mol
E18V	4.35 kcal/mol
E18T	4.3 kcal/mol
E18L	4.46 kcal/mol
E18H	4.32 kcal/mol
E18I	4.61 kcal/mol
K32F	4.98 kcal/mol

Variant	folding stability dG
K32V	4.35 kcal/mol
K32E	4.28 kcal/mol
K32L	4.55 kcal/mol
K32A	4.44 kcal/mol
K32G	4.13 kcal/mol
K32I	4.34 kcal/mol
K32T	4.41 kcal/mol
K32S	4.42 kcal/mol
K32Y	4.9 kcal/mol
K32P	3.09 kcal/mol
K32W	4.78 kcal/mol
K32D	4.21 kcal/mol
K32M	4.68 kcal/mol
K32H	4.55 kcal/mol
K32N	4.51 kcal/mol
K32C	4.22 kcal/mol
K32Q	4.38 kcal/mol
K32R	4.26 kcal/mol
I19T	3.98 kcal/mol
I19H	3.61 kcal/mol
I19K	3.18 kcal/mol
I19N	2.66 kcal/mol
I19Q	3.59 kcal/mol
I19Y	4.49 kcal/mol

Variant	folding stability dG
I19W	4.51 kcal/mol
I19D	3.07 kcal/mol
I19A	3.98 kcal/mol
I19E	3.36 kcal/mol
I19G	3.31 kcal/mol
I19C	4.1 kcal/mol
I19F	4.33 kcal/mol
I19S	3.56 kcal/mol
I19L	4.5 kcal/mol
I19M	4.5 kcal/mol
I19R	3.57 kcal/mol
I19V	4.19 kcal/mol
I19P	0.94 kcal/mol
L28T	4.16 kcal/mol
L28W	4.64 kcal/mol
L28Q	4.31 kcal/mol
L28P	3.39 kcal/mol
L28K	4.28 kcal/mol
L28V	4.51 kcal/mol
L28N	4.33 kcal/mol
L28M	4.46 kcal/mol
L28A	4.28 kcal/mol
L28C	4.12 kcal/mol
L28E	4.28 kcal/mol

Variant	folding stability dG
L28G	4.17 kcal/mol
L28I	4.42 kcal/mol
L28R	4.23 kcal/mol
L28D	4.11 kcal/mol
L28Y	4.57 kcal/mol
L28S	4.2 kcal/mol
L28F	4.31 kcal/mol
L28H	4.44 kcal/mol
V17R	4.29 kcal/mol
V17M	4.28 kcal/mol
V17Y	4.36 kcal/mol
V17H	4.4 kcal/mol
V17G	4.05 kcal/mol
V17F	4.42 kcal/mol
V17L	4.42 kcal/mol
V17W	4.53 kcal/mol
V17I	4.4 kcal/mol
V17Q	4 kcal/mol
V17N	3.71 kcal/mol
V17P	3.58 kcal/mol
V17S	4.23 kcal/mol
V17T	4.29 kcal/mol
V17K	4.07 kcal/mol
A21S	4.7 kcal/mol

Variant	folding stability dG
A21F	4.23 kcal/mol
A21N	3.84 kcal/mol
A21M	4.26 kcal/mol
A21P	2.03 kcal/mol
A21R	4.32 kcal/mol
A21D	3.72 kcal/mol
A21V	4.45 kcal/mol
A21K	4.29 kcal/mol
A21H	4.3 kcal/mol
A21L	4.24 kcal/mol
A21I	4.44 kcal/mol
A21Y	4.18 kcal/mol
A21W	3.72 kcal/mol
A21G	4.28 kcal/mol
A21E	4.25 kcal/mol
A21T	4.37 kcal/mol
A21Q	3.77 kcal/mol
A21C	4.07 kcal/mol
E26K	4.24 kcal/mol
E26C	4.23 kcal/mol
E26L	4.46 kcal/mol
E26H	4.5 kcal/mol
E26S	4.39 kcal/mol
E26D	4.32 kcal/mol

Variant	folding stability dG
E26P	3.07 kcal/mol
E26M	4.38 kcal/mol
E26R	4.39 kcal/mol
E26I	4.22 kcal/mol
E26Y	4.83 kcal/mol
E26T	4.28 kcal/mol
E26N	4.33 kcal/mol
E26Q	4.36 kcal/mol
E26W	4.92 kcal/mol
E26F	4.83 kcal/mol
E26A	4.66 kcal/mol
E26V	4.24 kcal/mol
E26G	4.58 kcal/mol
E20I	4.38 kcal/mol
E20P	4.29 kcal/mol
E20Y	4.56 kcal/mol
E20W	4.49 kcal/mol
E20N	4.22 kcal/mol
E20K	4.03 kcal/mol
E20H	4.42 kcal/mol
E20V	4.42 kcal/mol
E20A	4.33 kcal/mol
E20M	4.42 kcal/mol
E20L	4.36 kcal/mol

Variant	folding stability dG
E20R	4.29 kcal/mol
E20T	4.4 kcal/mol
E20Q	4.43 kcal/mol
E20G	4.27 kcal/mol
E20D	4.27 kcal/mol
E20S	4.22 kcal/mol
E20F	4.25 kcal/mol
E20C	4.28 kcal/mol
A31D	0.894 kcal/mol
A31S	4.2 kcal/mol
A31L	4.21 kcal/mol
A31R	2.47 kcal/mol
A31Y	4.33 kcal/mol
A31H	2.62 kcal/mol
A31C	4.18 kcal/mol
A31K	2.42 kcal/mol
A31M	4.4 kcal/mol
A31P	3.02 kcal/mol
A31G	4.15 kcal/mol
A31N	1.73 kcal/mol
A31F	4.48 kcal/mol
A31V	4.45 kcal/mol
A31E	2.11 kcal/mol
A31Q	2.81 kcal/mol

Variant	folding stability dG
A31W	4.25 kcal/mol
A31I	4.2 kcal/mol
A31T	4.01 kcal/mol
A27E	1.78 kcal/mol
A27T	3.58 kcal/mol
A27R	1.78 kcal/mol
A27D	1.49 kcal/mol
A27K	1.74 kcal/mol
A27S	4.03 kcal/mol
A27H	2.78 kcal/mol
A27V	4.38 kcal/mol
A27C	4.23 kcal/mol
A27M	3.71 kcal/mol
A27G	4.68 kcal/mol
A27L	4.34 kcal/mol
A27Y	3.79 kcal/mol
A27Q	2.23 kcal/mol
A27N	2.01 kcal/mol
A27W	3.93 kcal/mol
A27F	3.8 kcal/mol
A27I	4.09 kcal/mol
A27P	2.74 kcal/mol

Source: the MegaScale stability set (Tsuboyama et al. 2023)
